Laboratory results: PMC11984392, “EphA2-targeted alpha-particle theranostics for enhancing PDAC treatment” (Theranostics, 2025)
*1 amine or outer side, *2 acyl side, *3 side chain or, on linkers, in order; H or OH if unused. Bridges are numbered along the chain shown (N, C = ends). Primed or numbered codes have the meaning given here. [ ]: non-standard residue; d: D form. The star is where a group is joined. DOTA = O=C(O)CN1CCN(CC(=O)O)CCN(CC(=O)*)CCN(CC(=O)O)CC1; TATA = O=C(CC[*:1])N1CN(C(=O)CC[*:2])CN(C(=O)CC[*:3])C1; NOTA = O=C(O)CN1CCN(CC(=O)O)CCN(CC(=O)*)CC1; Hyp = O=C(O)[C@@H]1C[C@@H](O)CN1; hArg = N=C(N)NCCCC[C@H](N)C(=O)O; PEG2′ = not defined here; Sar = CNCC(=O)O

B1: AJ201 (peptide)
peptide: {NOTA-PEG2′}-GR[Sar][Sar][Sar]GA[hArg]DC[Hyp]LVNPLCLHP[dD]W[hArg]C-NH2
modifications: linker 10-17-24 via TATA; not fully specified; also: hydroxyproline, place not given here
notes: also called non-radioactive AJ201; bicyclic peptide AJ201; source: synthetic peptide, synthesized by CPC Scientific Inc., >90% purity
B2: AJ210 (peptide)
chain: {DOTA}-A[hArg]DC[Hyp]LVNPLCLHP[dD]W[hArg]C-NH2
modifications: linker 4-11-18 via TATA
SMILES: CC(C)C[C@@H]1NC(=O)[C@@H]2CSCCC(=O)N3CN(CN(C3)C(=O)CCSC[C@H](NC(=O)[C@H](CC(=O)O)NC(=O)[C@H](CCCCNC(=N)N)NC(=O)[C@H](C)NC(=O)CN3CCN(CC(=O)O)CCN(CC(=O)O)CCN(CC(=O)O)CC3)C(=O)N3C[C@H](O)C[C@H]3C(=O)N[C@@H](CC(C)C)C(=O)N[C@@H](C(C)C)C(=O)N[C@@H](CC(N)=O)C(=O)N3CCC[C@H]3C(=O)N[C@@H](CC(C)C)C(=O)N2)C(=O)CCSC[C@@H](C(N)=O)NC(=O)[C@H](CCCCNC(=N)N)NC(=O)[C@H](Cc2c[nH]c3ccccc23)NC(=O)[C@@H](CC(=O)O)NC(=O)[C@@H]2CCCN2C(=O)[C@H](Cc2c[nH]cn2)NC1=O

Columns and labels:
Conditions in all cases: both partners purified
His-tagged mouse EphA2 = molecular target: T1, His-tagged mouse EphA2 (mouse, UniProt Q03145 26-538); assay: SPR; Biacore T200, CM5 chip, 25 °C; His-tagged EphA2 captured (~750 RU) on amine-coupled anti-His antibody; peptide as analyte in HBS-P (10 mM HEPES pH 7.4, 150 mM NaCl, 0.05% P20) + 0.1% DMSO, 50 μL/min, contact 120 s, dissociation 600 s; 1:1 kinetics model
T1 construct: Mouse EphA2, recombinant, His-tagged, printed as 58 kDa; also called mEphA2; recombinant mouse EphA2; source: bought: SinoBiological, cat.# 50586-M08H
T1 sequence (Q03145 26-538): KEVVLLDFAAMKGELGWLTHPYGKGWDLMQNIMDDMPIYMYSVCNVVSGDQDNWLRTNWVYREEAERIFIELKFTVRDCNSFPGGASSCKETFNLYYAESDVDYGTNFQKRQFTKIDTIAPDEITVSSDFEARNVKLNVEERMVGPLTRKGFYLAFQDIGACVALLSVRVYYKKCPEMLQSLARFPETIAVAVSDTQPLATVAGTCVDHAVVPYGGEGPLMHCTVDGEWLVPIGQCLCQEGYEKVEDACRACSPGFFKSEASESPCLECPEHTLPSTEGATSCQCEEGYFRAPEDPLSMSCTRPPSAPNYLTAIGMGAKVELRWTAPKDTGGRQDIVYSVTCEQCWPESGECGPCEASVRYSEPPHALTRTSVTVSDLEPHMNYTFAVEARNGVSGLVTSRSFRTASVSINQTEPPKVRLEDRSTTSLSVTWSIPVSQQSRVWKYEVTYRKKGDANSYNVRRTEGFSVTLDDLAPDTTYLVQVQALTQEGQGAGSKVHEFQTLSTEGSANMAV

His-tagged human EphA2 [1] = molecular target: T2, His-tagged human EphA2 (human, UniProt P29317 24-537); assay: as above
T2 construct: Human EphA2 (Ephrin receptor A2), recombinant, His-tagged, printed as 56.9 kDa; also called hEphA2; recombinant human EphA2; source: bought: R&D systems, catalog # 3035-A2
T2 sequence (P29317 24-537): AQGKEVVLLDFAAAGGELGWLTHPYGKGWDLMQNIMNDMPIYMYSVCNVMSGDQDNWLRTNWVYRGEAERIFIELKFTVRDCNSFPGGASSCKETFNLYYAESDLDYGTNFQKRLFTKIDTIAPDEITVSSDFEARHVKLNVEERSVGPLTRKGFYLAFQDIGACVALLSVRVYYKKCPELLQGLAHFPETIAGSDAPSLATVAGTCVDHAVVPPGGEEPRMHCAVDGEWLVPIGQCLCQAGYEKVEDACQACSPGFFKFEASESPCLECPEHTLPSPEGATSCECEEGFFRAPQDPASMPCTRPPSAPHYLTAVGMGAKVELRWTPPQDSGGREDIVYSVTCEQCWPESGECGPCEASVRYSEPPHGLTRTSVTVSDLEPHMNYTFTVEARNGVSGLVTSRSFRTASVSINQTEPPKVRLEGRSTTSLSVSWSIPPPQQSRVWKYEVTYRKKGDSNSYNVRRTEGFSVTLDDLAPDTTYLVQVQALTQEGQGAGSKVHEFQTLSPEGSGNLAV

His-tagged human EphA2 [2] = molecular target: T3, His-tagged human EphA2 (human, UniProt P29317 24-537); assay: SPR; Biacore T200, CM5 chip, 25 °C; His-tagged human EphA2 captured on immobilised anti-His antibody (FC2); AJ210 as analyte, 0.625-80 nM, in HBS-P + 0.1% DMSO, 50 μL/min, contact 120 s, dissociation 600 s; 1:1 kinetics model
T3 construct: human EphA2 (Ephrin receptor A2), recombinant, 56.9 kDa; also called recombinant human EphA2 protein; hEphA2; source: bought: R&D systems, catalog # 3035-A2
T3 sequence (P29317 24-537): as above

Binder	Kd (His-tagged mouse EphA2)	Kd (His-tagged human EphA2 [1])	Kd (His-tagged human EphA2 [2])	koff (His-tagged human EphA2 [2])	kon (His-tagged human EphA2 [2])
B1	0.6 nM	0.2 nM			
B2			2.4 nM	0.00136 s⁻¹	561000 M⁻¹ s⁻¹
